The target of experiment [1] is T1, commercial GDF15 recombinant protein (R&D, 9279-GD) (UniProt Q99988 197-308).
T1 chain: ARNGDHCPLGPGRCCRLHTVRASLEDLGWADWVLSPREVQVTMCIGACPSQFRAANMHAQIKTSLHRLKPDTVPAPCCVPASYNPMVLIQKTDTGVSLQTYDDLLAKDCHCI
As to the kind of experiment: SPR.

Experiment [2] has as its target T1, commercial GDF15 recombinant protein …. The experiment can be described thus: SPR.

This note sets out measurements from patent US12630620 (dated 2026).

Where two headings read alike, the source gives them in different places.

B1: anti-GDF15 neutralizing monoclonal antibody G1 (antibody, V domains shown)
VH: DVQLQESGPGLVKPSQSLSLTCTVTGYSITSAYAWNWIRQFPGNKLEWMGYISYSGSTSYNPSLKSRISITRDTSKNQFFLQFNSVTTEDTATYYCARGGDAEDYWGQGTTLTVSS
VL: DIQMTQSPASLSVSVGETVTITCRASENIYSNLAWFQQKQGKSPQLLVYVATNLVDGVPSRFSGSGSGTQYSLKINSLQSEDFGTYYCQHFWGTPWTFGGGTKLEIK
For B1, the Kd in experiment [1] was found to be 71.4 nM.

B2: anti-GDF15 neutralizing monoclonal antibody G2 (antibody, V domains shown)
VH: QVQLQQSGAELARPGASVKLSCKASGYTFTDYYINWVKQRTGQGLEWIGEIYPGSGNTYYNEKFKGKATLTADKSSSTAYMQLSSLTSEDSAVYFCARVRALLRPLAMDYWGQGTSVTVSS
VL: QIVLSQSPAILSASPGEKVTMTCRASSSVSYMHWYQQKPGSSPKPWIYATSNLASGVPARFSGSGSGTSYSLTISRVEAEDAATYYCQQWSSNPPFTFGSGTKLEIK
For the molecule B2, in experiment [2], the Kd was determined as 572 nM.
